# According to IntAct's records for PubMed 17981123:
# B1: Serine endoprotease DegS (Escherichia coli (strain K12)), P0AEE3 (parent)
# chain: MFVKLLRSVAIGLIVGAILLVAMPSLRSLNPLSTPQFDSTDETPASYNLAVRRAAPAVVNVYNRGLNTNSHNQLEIRTLGSGVIMDQRGYIITNKHVINDADQIIVALQDGRVFEALLVGSDSLTDLAVLKINATGGLPTIPINARRVPHIGDVVLAIGNPYNLGQTITQGIISATGRIGLNPTGRQNFLQTDASINHGNSGGALVNSLGELMGINTLSFDKSNDGETPEGIGFAIPFQLATKIMDKLIRDGRVIRGYIGIGGREIAPLHAQGGGIDQLQGIVVNEVSPDGPAANAGIQVNDLIISVDNKPAISALETMDQVAEIRPGSVIPVVVMRDDKQLTLQVTIQEYPATN
# partner: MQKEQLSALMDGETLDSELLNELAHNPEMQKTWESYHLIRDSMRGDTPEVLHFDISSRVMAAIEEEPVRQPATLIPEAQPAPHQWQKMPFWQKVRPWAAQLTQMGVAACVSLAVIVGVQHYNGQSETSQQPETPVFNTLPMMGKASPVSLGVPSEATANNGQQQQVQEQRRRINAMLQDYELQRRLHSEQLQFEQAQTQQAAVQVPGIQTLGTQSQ
# Variants of: B1
# Details: with rsea_ecoli rseA
row,Variant,effect of a mutation on the interaction
1,MFVKLLRSVAIGLIVGAILLVAMPSLRSLNPLSTPQFDSTDETPASYNLAVRRAAPAVVNVYNRGLNTNSHNQLEIRTLGSGVIMDQRGYIITNKHVINDADQIIVALQDGRVFEALLVGSDSLTDLAVLKINATGGLPTIPINARRVPHIGDVVLAIGNPYNLGQTITQGIISATGRIGLNPTGRQNFLQTDASINHGNSGGALVNSLGELMGINTLSFDKSNDGETPEGIGFAIPFQLATKIMDKLIRDGRVIDGYIGIGGREIAPLHAQGGGIDQLQGIVVNEVSPDGPAANAGIQVNDLIISVDNKPAISALETMDQVAEIRPGSVIPVVVMRDDKQLTLQVTIQEYPATN [R256D],decreasing interaction
2,MFVKLLRSVAIGLIVGAILLVAMPSLRSLNPLSTPQFDSTDETPASYNLAVRRAAPAVVNVYNRGLNTNSHNQLEIRTLGSGVIMDQRGYIITNKHVINDADQIIVALQDGRVFEALLVGSDSLTDLAVLKINATGGLPTIPINARRVPHIGDVVLAIGNPYNLGQTITQGIISATGRIGLNPTGRQNFLQTDASINHGNSGGALVNSLGELMGINTLSFDKSNDGETPEGIGFAIPFQLATKIMDKLIRDGRVIAGYIGIGGREIAPLHAQGGGIDQLQGIVVNEVSPDGPAANAGIQVNDLIISVDNKPAISALETMDQVAEIRPGSVIPVVVMRDDKQLTLQVTIQEYPATN [R256A],increasing interaction
3,MFVKLLRSVAIGLIVGAILLVAMPSLRSLNPLSTPQFDSTDETPASYNLAVRRAAPAVVNVYNRGLNTNSHNQLEIRTLGSGVIMDQRGYIITNKHVINDADQIIVALQDGRVFEALLVGSDSLTDLAVLKINATGGLPTIPINARRVPHIGDVVLAIGNPYNLGQTITQGIISATGAIGLNPTGRQNFLQTDASINHGNSGGALVNSLGELMGINTLSFDKSNDGETPEGIGFAIPFQLATKIMDKLIRDGRVIRGYIGIGGREIAPLHAQGGGIDQLQGIVVNEVSPDGPAANAGIQVNDLIISVDNKPAISALETMDQVAEIRPGSVIPVVVMRDDKQLTLQVTIQEYPATN [R178A],decreasing interaction
4,MFVKLLRSVAIGLIVGAILLVAMPSLRSLNPLSTPQFDSTDETPASYNLAVRRAAPAVVNVYNRGLNTNSHNQLEIRTLGSGVIMDQRGYIITNKHVINDADQIIVALQDGRVFEALLVGSDSLTDLAVLKINATGGLPTIPINARRVPHIGDVVLAIGNPYNLGQTITQGIISATGRIGLNPTGRQNFLQTDASINHGNSGGALVNSLGELMGINTLSFDKSNDGETPEGIGFAIPFQLATKIMDKLIRDGRVIRGYIGIGGREIAPLHAQGGGIDQLQGIVVNEVSPDGPAANAGIQVNDLIISVDNKPAISALETMAQVAEIRPGSVIPVVVMRDDKQLTLQVTIQEYPATN [D320A],increasing interaction
5,MFVKLLRSVAIGLIVGAILLVAMPSLRSLNPLSTPQFDSTDETPASYNLAVRRAAPAVVNVYNRGLNTNSHNQLEIRTLGSGVIMDQRGYIITNKHVINDADQIIVALQDGRVFEALLVGSDSLTDLAVLKINATGGLPTIPINARRVPHIGDVVLAIGNPYNLGQTITQGIISATGRIGLNPTGRQNFLQTDASINHGNSGGALVNSLGELMGINTLSFDKSNDGATPEGIGFAIPFQLATKIMDKLIRDGRVIRGYIGIGGREIAPLHAQGGGIDQLQGIVVNEVSPDGPAANAGIQVNDLIISVDNKPAISALETMDQVAEIRPGSVIPVVVMRDDKQLTLQVTIQEYPATN [E227A],increasing interaction
6,MFVKLLRSVAIGLIVGAILLVAMPSLRSLNPLSTPQFDSTDETPASYNLAVRRAAPAVVNVYNRGLNTNSHNQLEIRTLGSGVIMDQRGYIITNKHVINDADQIIVALQDGRVFEALLVGSASLTDLAVLKINATGGLPTIPINARRVPHIGDVVLAIGNPYNLGQTITQGIISATGRIGLNPTGRQNFLQTDASINHGNSGGALVNSLGELMGINTLSFDKSNDGETPEGIGFAIPFQLATKIMDKLIRDGRVIRGYIGIGGREIAPLHAQGGGIDQLQGIVVNEVSPDGPAANAGIQVNDLIISVDNKPAISALETMDQVAEIRPGSVIPVVVMRDDKQLTLQVTIQEYPATN [D122A],decreasing interaction
7,MFVKLLRSVAIGLIVGAILLVAMPSLRSLNPLSTPQFDSTDETPASYNLAVRRAAPAVVNVYNRGLNTNSHNQLEIRTLGSGVIMDQRGYIITNKHVINDADQIIVALQDGRVFEALLVGSDSLTDLAVLKINATGGLPTIPINARRVPHIGDVVLAIGNPFNLGQTITQGIISATGRIGLNPTGRQNFLQTDASINHGNSGGALVNSLGELMGINTLSFDKSNDGETPEGIGFAIPFQLATKIMDKLIRDGRVIRGYIGIGGREIAPLHAQGGGIDQLQGIVVNEVSPDGPAANAGIQVNDLIISVDNKPAISALETMDQVAEIRPGSVIPVVVMRDDKQLTLQVTIQEYPATN [Y162F],decreasing interaction
8,MFVKLLRSVAIGLIVGAILLVAMPSLRSLNPLSTPQFDSTDETPASYNLAVRRAAPAVVNVYNRGLNTNSHNQLEIRTLGSGVIMDQRGYIITNKHVINDADQIIVALQDGRVFEALLVGSDSLTDLAVLKINATGGLPTIPINARRVPHIGDVVLAIGNPANLGQTITQGIISATGRIGLNPTGRQNFLQTDASINHGNSGGALVNSLGELMGINTLSFDKSNDGETPEGIGFAIPFQLATKIMDKLIRDGRVIRGYIGIGGREIAPLHAQGGGIDQLQGIVVNEVSPDGPAANAGIQVNDLIISVDNKPAISALETMDQVAEIRPGSVIPVVVMRDDKQLTLQVTIQEYPATN [Y162A],disrupting interaction
9,MFVKLLRSVAIGLIVGAILLVAMPSLRSLNPLSTPQFDSTDETPASYNLAVRRAAPAVVNVYNRGLNTNSHNQLEIRTLGSGVIMDQRGYIITNKHVINDADQIIVALQDGRVFEALLVGSDSLTDLAVLKINATGGLPTIPINARRVPHIGDVVLAIGNPYNLGQTITQGIISATGRIGLNPTGRQNFLQTDASINHGNSGGALVNSLGELMGINTLSFDKSNDGETPEGIGFAIPFQLATDIMDKLIRDGRVIRGYIGIGGREIAPLHAQGGGIDQLQGIVVNEVSPDGPAANAGIQVNDLIISVDNKPAISALETMDQVAEIRPGSVIPVVVMRDDKQLTLQVTIQEYPATN [K243D],increasing interaction
